The domain aggregation screens of Martell et al. (2025)

Test: soluble fraction after stress (log2 fold change); higher = more stays soluble; pooled small domains, quantitative proteomics
Settings: stress: pH 4
How it was run: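 High-throughput quantitative proteomics was run on pooled custom libraries of small protein domains following pH 4 stress. Fold changes are on a log2 scale; higher values mean more of a domain remained soluble. The fold change in soluble amount is taken as a measure of aggregation propensity.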

Sequence | soluble fraction (log2)
HMAKNSVLTIELWNSTAFKWRKDTEPYSESMSVDFNRSVRLTDGISIMFSKFGFVPGIQYLIPLQT | -0.331
HMGDAVYSKVKDLVNTYNALAKQTGKSDLVSISQSRTWMVNDTKAHEVQWNKIGITIEDDQTLTI | -0.13
HMPAGWIPARIRLADYPQLRSLAWHVQGIDTLTPTEALDIYERNARHLDAQAMSAQEQDLLASLRLALS | -1.06
HMNQTPQISYSQFIADVRSGQIKDVNIDSDNRTIVGHKFSGEEFTTFSPGDNKLVDELLNYNVEIKTSP | -0.125
HMQALTLVGQDAKDAKAALDAVDIQPAKTETDRYIYVLTEQQAQELGRTVDALYGVEGSLTLILEV | -0.207
HMNRIFQERVVPAELDTLRADKVAASLFSDFSRNELAHWIKMGDLSINGGVKKAKDKLFEGDVLILDVEIV | -0.679
HMDYKYYIVKEPMVVKNLELPVGTRIVYFNTSLFGDSESSRPLKEKNIYQIFFPDDKPLIWGGVPVSLIER | -0.546
HMGRSARVQQAVHQAVRALLEENDGERSALSVPLVAERAGVNSSTIYRRWGDLPRLLAAVASN | 0.0284
HMTFKDIMENYTISRIENTINSAVVFLDEINAYITIDKTQLPSNLRYDTDSKIMASQIPDDAKIKYFMIYW | -1.61
HMVGMDRYFKIKNIKDSSAAFERDYILHFLKENDWMVSKTAQMIGLERTTLYKKIKQLGLASMLEN | -0.386
HMGGQYQVRPGETLNQIAARVRPSNMSLSETQKAIIQANPDIFKNGNPNLIFAGDILRIPTGNQI | -0.224
HMRQGHLDLLRQIHALPPSTREVVYLRAFGGLSFREIGDVLGRTETWARVTFYRGKEALRKG | -0.275
HMARVSGIDLPKNKRGYIGLTYIYGIGRSTALHILNSAGVDPEKKVHEWNDDETTAIRNIINAEIKVEGAL | -0.248
HMEVFTPSEANVAEAREILAAMATAKANGEGATVYKGRLVDIASIKQAEVIVRQSEMIQSAH | -0.151
HMRLEEVSVPQRLLAAIAEEREVQIGIVDGRGGTRVLRVEPLALEGGRLRARDVESGEEFTVLIHRVLL | -0.809
HMSGRSVSYSEFMSRVEAGQVSSVTLDGERVEVTGSDGSRYVTIAPSDATLTDKLVAKGVEVRADP | 0.196
HMVPSSHNIAQKVKQIKINDLWLDVRERYIYLKNLYLSHPLEKDHPSFIVYVEAVNQIYNQYF | 0.0743
HMKNMSLGERIKEQRKSSGLSQEKVAEFVGVSRQAVTKWETGQSAPSTENLFKLAEIFGTTVDILLA | -0.0228
HMEGAEDMNRALALAFLRDNSRSTVAQLAEHLGSSKRSAERLVAQLKDEGVLERQGSPRAGLWIVHI | 0.221

Sequence | soluble fraction (log2)
HMDIESREAWVDASGMGVRLDRWLTQLAPEFSRNHLQSLIERGAVRVDGQPALVASRKLRIGQQVAVSLIP | -0.0568
HMVLTSFHDNFPKTGTTYTVRSGDTISGIATKFGSTRDWIQNANEISHPKYLQVGRTLFIPH | 0.22
HMKEIGGGPASKFIYYLIKTKHPIEQGDLIGITHLPRRTVQSAIEDLKNQGFIIERNSLDDSRRKVYYPVK | 0.22
HMKRVTRQRTEILRVIDESERPLGPQEILQAGREAIPSLSIATIYRTLRDLLAEELIKTVALPGDSPRYES | -0.0601
HMSDILALMPGTIKQILVAPGDSVKRGQTVIIMESMKMELTIAAHRDGVVKRIPVEQGGQVEKGMRLLELE | -0.263
HMKDIIVLGAIQAGIKKFDKIQKMTQIEPEELNSILEQLENRGFIQVAEKSGLLGKKIEILVTEKGSNEVD | -0.484
HMGKKGPELNDNEKIIFNIISKENSMNLDDLKNRTELSNKQWDKAIKGLRSHELVNIEKIDDQLLIHL | -0.598
HMQRSVEDVFVQLRNGMDTYDMTQIEDALRILHGMELSTAQRDLLDKVQEAYNDLEYETGAALLAGFERIK | -0.981
HMGRKIDDPSSMTGAEKAAVILLALGDEQRQLWEMMDDEEIRVVSQAMVNLGNVTSGAVEKLIMEFVGSMS | -0.425
HMLMNADVLVKYQEDHWIVISEKASQASDTFDKKEQAVERAKEIAKNKNSSVKVYKQDGTLQDTFDYS | 0.306
HMSITKDNLSIGTNIRISGFSDIGRIISIPNKGNQVQVQIGSAKMNIKINSIVEIIKEEKDFNKNISN | 0.189
HMALPEHIEPFLRGLGQALAEGDSYEDVQERLLRAYPYLDSTEFQTALARVIFISDLWGRLN | -1.02
HMSVLNLQTDIPKKYTDVLGTSVKGRLNTLVHNVIINSVDRPVIQMSEEVHEAMQGLRIFMFENVYRNPV | 0.22
HMHPTDMKLTARLEEGAQFVRTQQLSKAIEIFTEVIKLDQNWAEAWNKRATVFYMMGKFKQSQEDIDKVLA | -0.12
HMVVQTELVRISITSLSGEDIRRLVQIKVVGATIEPFEGGGFLITGTAEQIAKAKDFLNSMSTEF | -1.29
HMAPNKLQQQEVWTKALPLLQQMIMTIRQIDAAGGDSSPERELLEETAARFDETLDVERFLP | -0.774
HMIDRPLTLVEDYERFAGELAKITLRFMLDGRKRFNGRLAGFDEDGKIVLETSFGRFAFSFDEIDSARI | -2.08
HMLLSHTAQREGELLTFLRGELALSSGLVKRLKWQNAFFLDGAPVHTNARVKPGQEITVRIEE | -1.09
